The results in this text go back to patent US20120244208A1, “COSMETIC SKIN CARE METHODS AND COMPOSITIONS” (priority 2009, published 2012).

Test [1] relates to Normal human dermal fibroblasts (NHDFs) seeded on collagen type 1 gels. As to the kind of experiment: Fibroblast-seeded collagen gel contraction. Type of test: cell-based. As to conditions: 0.1 mg/ml lactoferrin, 0.1 mg/ml ICI 118 551, 1.0 mg/ml Isoproterenol, 3.5×10^4 cells per well. The method, then: Normal human dermal fibroblasts (NHDFs) were obtained by tissue donation following circumcision following patient informed consent. The tissue was rinsed in Phosphate Buffered Saline (PBS) and Pen/Strep and Amphotericin B (Pen/strep) at 10 ug/ml. The tissue was then minced to 1 mm2 sections and suspended in Trypsin-EDTA 1:250 at room temperature (RT) for 1 hr. The tissue was then washed twice by centrifugation at 2500 g for 3min in serum supplemented DMEM/F12. A single cell suspension was created using mechanical disaggregation. The cells were counted using a haemocytometer and cultured at 1×10^6 cells per T75 tissue culture flask in DMEM/F12 containing 10% Fetal Bovine Serum (FBS) and 10 ug/ml Pen/strep. Incubators were kept at 37° C. and 5% CO2. Medium was changed every 3-4 days and cells were used from the 4th passage in vitro.
Collagen gels were formed. A solution of collagen, consisting of 2 mg/ml type 1 bovine collagen from bovine Achilles tendon in 0.5M acetic acid, was made. This made up 80% of the gel. Another 10% was made up of 10×PBS and the remaining volume was made up of FBS. The pH of the entire solution was adjusted to 7.4 using NaOH. 400 μl of the solution was placed into each well of a 24 well plate. The gels were set at 37° C. for 1 hr. After ensuring that the gels were set properly, they were detached from the sides of the wells and exposed to 1 ml fully supplemented DMEM/F12 overnight to acclimatize. The complete gels were seeded with 3.5×10^4 cells per well and the test compounds were added at this point. The test compound were added as follows: 0.1 mg/ml lactoferrin, 0.1 mg/ml ICI 118 551, 1.0 mg/ml Isoproterenol. A cell only and no cell control were also incuded.
Photographs were taken from the same distance at 0, 3, 6, 12 and 24 hrs of exposure using a Canon Powershot A640 10MP camera. The photos were transferred to CorelDRAW X3 and the inside diameter of the well as well as the outer edge of the gel were measured using the circle tool. […] These two diameters were then converted to a percentage of the well diameter by the formula geloutside/wellinside×100=gelrelative. This value was then worked out the same way for each gel at every time period. The time period Ohrs taken to be 100% of gel size and each time period after that was compared to it as a relative percentage. The standard deviation was calculated based on the original relative percentage to the well.

Test [2] shares this test system. As to the kind of experiment: Fibroblast-seeded collagen gel contraction. Type of test: cell-based. Conditions: monitored for a further 3 days.

B1: Lactoferrin (protein, UniProt P02788 20-710, looked up)
Lactotransferrin: GRRRSVQWCAVSQPEATKCFQWQRNMRKVRGPPVSCIKRDSPIQCIQAIAENRADAVTLDGGFIYEAGLAPYKLRPVAAEVYGTERQPRTHYYAVAVVKKGGSFQLNELQGLKSCHTGLRRTAGWNVPIGTLRPFLNWTGPPEPIEAAVARFFSASCVPGADKGQFPNLCRLCAGTGENKCAFSSQEPYFSYSGAFKCLRDGAGDVAFIRESTVFEDLSDEAERDEYELLCPDNTRKPVDKFKDCHLARVPSHAVVARSVNGKEDAIWNLLRQAQEKFGKDKSPKFQLFGSPSGQKDLLFKDSAIGFSRVPPRIDSGLYLGSGYFTAIQNLRKSEEEVAARRARVVWCAVGEQELRKCNQWSGLSEGSVTCSSASTTEDCIALVLKGEADAMSLDGGYVYTAGKCGLVPVLAENYKSQQSSDPDPNCVDRPVEGYLAVAVVRRSDTSLTWNSVKGKKSCHTAVDRTAGWNIPMGLLFNQTGSCKFDEYFSQSCAPGSDPRSNLCALCIGDEQGENKCVPNSNERYYGYTGAFRCLAENAGDVAFVKDVTVLQNTDGNNNEAWAKDLKLADFALLCLDGKRKPVTEARSCHLAMAPNHAVVSRMDKVERLKQVLLHQQAKFGRNGSDCPDKFCLFQSETKNLLFNDNTECLARLHGKTTYEKYLGPQYVAGITNLKKCSTSPLLEACEFLRK
notes: transferrin; known collagen contractor
As to B1, the “% of original size (mean)” value in test [1] (0 hrs (taken to be 100% of gel size)) amounted to 100%; in test [1] (3 hrs), 92.62%; in test [1] (6 hrs) it was 64.48%; in test [1] (12 hrs), 54.71%; in test [1] (24 hrs), 49.73%. In addition, the “return of gels to original dimensions” value in test [2] is on record as “did not return to their original dimensions”.
